According to FireProtDB (doi:10.1006/jmbi.1995.0616):

Settings: Hordeum vulgare; pH 6.25; 25 °C; GdnHCl; Fluorescence; MES 50 mM; reversible: yes; whole UniProt chain shown

B1: Subtilisin-chymotrypsin inhibitor-2A wild type, P01053 (protein)
chain: MSSVEKKPEGVNTGAGDRHNLKTEWPELVGKSVEEAKKVILQDKPEAQIIVLPVGTIVTMEYRIDRVRLFVDKLDNIAQVPRVG
denaturant m value: 1.9 kcal/mol/M
denaturant midpoint (higher = more stable): 4 M
unfolding free energy: 7.6 kcal/mol
